Target: T1, synthetic phosphotyrosine peptide Arg-Arg-Leu-Ile-Glu-Asp-Ala-Glu-Tyr-Ala-Ala-Arg-Gly, wherein the tyrosine is phosphorylated
T1 chain: RRLIEDAEYAARG

Row | Protein | immunocomplex PTPase assay (anti-Flag immunocomplexes from NIH3T3 transfectants) | immunocomplex PTPase assay (anti-Flag immunocomplexes from WM9 transfectants) | in vitro PTPase assay
1 | Flag-tagged PRL-1 (protein) MARMNRPAPVEVTYKNMRFLITHNPTNATLNKFIEELKKYGVTTIVRVCEATYDTTLVEKEGIHVLDWPFDDGAPPSNQIVDDWLSLVKIKFREEPGCCIAVHCVAGLGRAPVLVALALIEGGMKYEDAVQFIRQKRRGAFNSKQLLYLEKYRPKMRLRFKDSNGHRNNCCIQ | a markedly higher PTPase activity (about 23 folds) over that of control transfectants | showed phosphatase activities well above the background activity of the vector control cells | –
2 | Flag-tagged PRL-1R86 mutant (protein) MARMNRPAPVEVTYKNMRFLITHNPTNATLNKFIEELKKYGVTTIVRVCEATYDTTLVEKEGIHVLDWPFDDGAPPSNQIVDDWLRLVKIKFREEPGCCIAVHCVAGLGRAPVLVALALIEGGMKYEDAVQFIRQKRRGAFNSKQLLYLEKYRPKMRLRFKDSNGHRNNCCIQ | – | showed phosphatase activities well above the background activity of the vector control cells | –
3 | GST fusion protein of human PRL-1 (protein) MARMNRPAPVEVTYKNMRFLITHNPTNATLNKFIEELKKYGVTTIVRVCEATYDTTLVEKEGIHVLDWPFDDGAPPSNQIVDDWLSLVKIKFREEPGCCIAVHCVAGLGRAPVLVALALIEGGMKYEDAVQFIRQKRRGAFNSKQLLYLEKYRPKMRLRFKDSNGHRNNCCIQ | – | – | PTPase activity of recombinant PRL-1, PRL-2 and PRL-3 in dephosphorylating a synthetic phosphotyrosine peptide substrate
4 | GST fusion protein of PRL-1R86 (protein) MARMNRPAPVEVTYKNMRFLITHNPTNATLNKFIEELKKYGVTTIVRVCEATYDTTLVEKEGIHVLDWPFDDGAPPSNQIVDDWLRLVKIKFREEPGCCIAVHCVAGLGRAPVLVALALIEGGMKYEDAVQFIRQKRRGAFNSKQLLYLEKYRPKMRLRFKDSNGHRNNCCIQ | – | – | showed in vitro PTPase activity similar to that of wild type PRL-1
5 | GST fusion protein of human PRL-2 (protein) MNRPAPVEISYENMRFLITHNPTNATLNKFTEELKKYGVTTLVRVCDATYDKAPVEKEGIHVLDWPFDDGAPPPNQIVDDWLNLLKTKFREEPGCCVAVHCVAGLGRAPVLVALALIECGMKYEDAVQFIRQKRRGAFNSKQLLYLEKYRPKMRLRFRDTNGHCCVQ | – | – | PTPase activity of recombinant PRL-1, PRL-2 and PRL-3 in dephosphorylating a synthetic phosphotyrosine peptide substrate

From patent US20050215629
